Measured values from patent EP4785961A1 (Fortvita Biologics Inc., dated 2025).

Columns and labels:
[1] = biological target: HER3 expressed on tumor cell lines (NUGC4, HCC1569, NCI-H508, SW620, HCC827 HER3OX) (UniProt P21860 20-1342, limits assumed); test: cell-based or functional assay
[2] = biological target: T1, human HER3 (Sino Biological, 10201-H08H) (human, UniProt P21860 20-643); test: BLI (Fortebio Octet Red96e), AHC sensors, HER3-MB3 and antigen each at 100 nM
T1 construct: Bought antigen; also called ErbB3

[3] = biological target: T2, mouse HER3 (Sino Biological, 51003-M08H) (mouse, UniProt Q61526 20-641); test: as above
T2 construct: Bought antigen; also called Mice

[4] = biological target: T3, rat HER3 (Sino Biological, 80111-R08H) (rat, UniProt Q62799 20-641); test: as above
T3 construct: Bought antigen

[5] = biological target: T4, monkey HER3 (Sino Biological, 90043-K08H) (cynomolgus monkey, UniProt G7PIG5 20-643); test: as above
T4 construct: Bought antigen; also called Cynomolgus monkeys
T4 sequence (G7PIG5 entry or part of it K08H K08H): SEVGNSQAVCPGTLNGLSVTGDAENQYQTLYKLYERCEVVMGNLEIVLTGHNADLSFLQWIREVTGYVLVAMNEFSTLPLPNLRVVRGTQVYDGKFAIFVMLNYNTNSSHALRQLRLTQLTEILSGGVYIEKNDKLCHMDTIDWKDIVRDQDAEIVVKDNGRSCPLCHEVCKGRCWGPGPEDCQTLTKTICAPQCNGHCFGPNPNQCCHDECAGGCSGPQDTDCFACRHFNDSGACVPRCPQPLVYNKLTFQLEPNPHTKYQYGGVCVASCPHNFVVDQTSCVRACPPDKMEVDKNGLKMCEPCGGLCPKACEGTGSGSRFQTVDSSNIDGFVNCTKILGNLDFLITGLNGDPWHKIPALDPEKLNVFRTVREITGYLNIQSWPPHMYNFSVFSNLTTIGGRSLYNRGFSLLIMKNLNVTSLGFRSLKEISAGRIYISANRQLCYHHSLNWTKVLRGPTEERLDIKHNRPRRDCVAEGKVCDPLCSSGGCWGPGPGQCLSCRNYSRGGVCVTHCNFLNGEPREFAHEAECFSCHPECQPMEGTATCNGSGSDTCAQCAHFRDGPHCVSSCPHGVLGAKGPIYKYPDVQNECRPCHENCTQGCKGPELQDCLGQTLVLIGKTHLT

T2 sequence (Q61526 20-641 limits assumed, stated change not applied): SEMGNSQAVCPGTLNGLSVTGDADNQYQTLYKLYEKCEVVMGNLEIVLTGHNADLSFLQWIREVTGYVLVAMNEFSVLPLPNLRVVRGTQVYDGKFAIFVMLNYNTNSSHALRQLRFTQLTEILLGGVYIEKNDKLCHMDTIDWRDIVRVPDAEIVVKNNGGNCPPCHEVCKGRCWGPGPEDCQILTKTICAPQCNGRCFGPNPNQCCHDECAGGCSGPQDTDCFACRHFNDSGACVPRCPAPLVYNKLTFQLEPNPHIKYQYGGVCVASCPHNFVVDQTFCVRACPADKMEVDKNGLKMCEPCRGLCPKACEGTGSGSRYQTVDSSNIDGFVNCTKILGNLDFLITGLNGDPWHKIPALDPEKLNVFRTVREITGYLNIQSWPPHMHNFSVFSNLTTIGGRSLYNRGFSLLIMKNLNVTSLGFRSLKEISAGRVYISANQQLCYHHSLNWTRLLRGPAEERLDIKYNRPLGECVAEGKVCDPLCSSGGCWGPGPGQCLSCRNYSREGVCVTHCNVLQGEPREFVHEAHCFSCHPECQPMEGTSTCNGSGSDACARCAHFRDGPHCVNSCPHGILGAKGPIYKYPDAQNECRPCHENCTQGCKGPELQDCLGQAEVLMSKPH
T3 sequence (Q62799 20-641 limits assumed, stated change not applied): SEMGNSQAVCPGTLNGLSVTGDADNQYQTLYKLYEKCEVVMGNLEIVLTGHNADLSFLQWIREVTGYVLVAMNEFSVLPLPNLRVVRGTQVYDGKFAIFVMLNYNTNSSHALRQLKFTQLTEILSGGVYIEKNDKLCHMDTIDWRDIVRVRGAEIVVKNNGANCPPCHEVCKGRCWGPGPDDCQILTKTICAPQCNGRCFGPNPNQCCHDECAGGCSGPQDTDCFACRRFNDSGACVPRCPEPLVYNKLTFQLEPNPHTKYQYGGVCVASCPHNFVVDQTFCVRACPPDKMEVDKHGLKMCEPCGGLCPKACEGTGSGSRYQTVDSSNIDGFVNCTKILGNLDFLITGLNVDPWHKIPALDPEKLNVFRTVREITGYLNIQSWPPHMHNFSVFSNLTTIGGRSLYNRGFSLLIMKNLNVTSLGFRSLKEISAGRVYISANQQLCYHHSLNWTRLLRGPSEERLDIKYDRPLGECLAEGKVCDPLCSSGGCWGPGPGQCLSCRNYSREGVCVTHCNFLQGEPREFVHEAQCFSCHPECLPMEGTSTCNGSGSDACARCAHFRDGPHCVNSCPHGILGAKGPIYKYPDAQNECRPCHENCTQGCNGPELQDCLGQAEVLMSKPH

B1: HER3-MB3 (patritumab-MB3) antibody-drug conjugate (antibody, human IgG1, kappa, V domains shown)
VH: QVQLQQWGAGLLKPSETLSLTCAVYGGSFSGYYWSWIRQPPGKGLEWIGEINHSGSTNYNPSLKSRVTISVETSKNQFSLKLSSVTAADTAVYYCARDKWTWYFDLWGRGTLVTVSS
VL: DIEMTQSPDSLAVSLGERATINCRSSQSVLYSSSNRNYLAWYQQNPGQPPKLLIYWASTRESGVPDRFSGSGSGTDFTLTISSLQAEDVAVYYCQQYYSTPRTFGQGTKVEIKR
modifications: drug-linker MB3 (payload MB1) conjugated to cysteines after TCEP reduction; conjugated positions not given; drug-linker MB3 (payload MB1) conjugated to cysteines after TCEP reduction; n mainly 8, average DAR 7.56; conjugated positions not given
notes: Antibody-drug conjugate; also called HER3-ADC
Question: With B1 as the binder, how does the “IC50 of in vitro killing, HCC1569 tumor cell line (3D culture, 7 days, Cell-Titer)” value [1] read?
Answer: Its value is 0.07 nM.

Question: And the “IC50 of in vitro killing, NUGC4 tumor cell line (3D culture, 7 days, Cell-Titer)” value [1]?
Answer: The value was 0.55 nM.

Question: What about the Kd [2] of the same binder?
Answer: The Kd was 2.42 nM.

Question: What about the koff [2] of the same binder?
Answer: The koff was 0.000463 s⁻¹.

Question: What about the kon [2] of the same binder?
Answer: The kon was 191000 M⁻¹ s⁻¹.

Question: And the Kd [3]?
Answer: Its Kd is 45.8 nM.

Question: What about the koff [3] of the same binder?
Answer: Its koff is 0.00989 s⁻¹.

Question: What about the kon [3] of the same binder?
Answer: Its kon is 216000 M⁻¹ s⁻¹.

Question: And the Kd [4]?
Answer: Its Kd is 38.8 nM.

Question: What about the koff [4] of the same binder?
Answer: The koff was 0.00615 s⁻¹.

Question: What about the kon [4] of the same binder?
Answer: The kon was 158000 M⁻¹ s⁻¹.

Question: What about the Kd [5] of the same binder?
Answer: The Kd was 2.55 nM.

Question: What about the koff [5] of the same binder?
Answer: Its koff is 0.000562 s⁻¹.

Question: What about the kon [5] of the same binder?
Answer: Its kon is 221000 M⁻¹ s⁻¹.
